Test results: US20080279855A1, “Dna Replication Modulating Peptides, Nucleic Acids Encoding Them, and Their Use in Pharmaceutical Compositions” (CENTRE NATIONAL DE LA RECHERCHE SCIENTIFIQUE, priority 2004, published 2008)
“Also recorded” adds a separate entry of the source.

B1: wild type protein: total amino acid sequence of human Geminin, about 25 kDa negative regulator of genome replication (protein, listed as Homo sapiens)
chain: MNPSMKQKQEEIKENIKNSSVPRRTLKMIQPSASGSLVGRENELSAGLSKRKHRNDHLTSTTSSPGVIVPESSENKNLGGVTQESFDLMIKENPSSQYWKEVAEKRRKALYEALKENEKLHKEIEQKDNEIARLKKENKELAEVAEHVQYMAELIERLNGEPLDNFESLDNQEFDSEEETVEDSLVEDSEIGTCAEGTVSSSTDAKPCI
B2: HsGem(82-160): deletion mutant of human Geminin, residues 82-160, hexahistidine-tagged, expressed in E. coli (protein)
chain: TQESFDLMIKENPSSQYWKEVAEKRRKALYEALKENEKLHKEIEQKDNEIARLKKENKELAEVAEHVQYMAELIERLNG
modifications: hexahistidine tag
notes: deletion mutant of human Geminin, residues 82-160, hexahistidine-tagged, expressed in E. coli
B3: HsGem(80-212): form of HsGeminin (residues 80-212) with the coiled-coil domain plus the entire carboxy-terminal part (protein)
chain: GVTQESFDLMIKENPSSQYWKEVAEKRRKALYEALKENEKLHKEIEQKDNEIARLKKENKELAEVAEHVQYMAELIERLNGEPLDNFESLDNQEFDSEEETVEDSLVEDSEIGTCAEGTVSSSTDAKPCI
B4: HsGem(82-145): deletion mutant of human Geminin, residues 82-145, hexahistidine-tagged, expressed in E. coli (protein)
chain: TQESFDLMIKENPSSQYWKEVAEKRRKALYEALKENEKLHKEIEQKDNEIARLKKENKELAEVA
B5: HsGem(76-160): deletion mutant of human Geminin, residues 76-160, hexahistidine-tagged, expressed in E. coli (protein)
chain: KNLGGVTQESFDLMIKENPSSQYWKEVAEKRRKALYEALKENEKLHKEIEQKDNEIARLKKENKELAEVAEHVQYMAELIERLNG
modifications: hexahistidine tag
notes: deletion mutant of human Geminin, residues 76-160, hexahistidine-tagged, expressed in E. coli

Tested on: DNA synthesis in Xenopus egg extracts
Test: in vitro DNA replication (DNA synthesis inhibition) assay in Xenopus egg extracts, alpha-32P dCTP incorporation
Type: biochemical
Details: for inhibition of DNA synthesis (in words): sperm nuclei 3 ng/μl, 2 hours at room temperature
Protocol: The capacity of a compound to inhibit DNA replication can be measured as described in Example 3, by following the general method given in Blow, J. J. & Laskey, R. A. (1986). Initiation of DNA replication in nuclei and purified DNA by a cell-free extract of Xenopus eggs. Cell 47, 577-87
FIG. 3A represents the activity of HsGeminin deletion mutants. The DNA synthesis inhibition activity of a series of HsGeminin deletion mutant proteins was measured by incubation in Xenopus egg extracts. […] DNA synthesis was measured by incorporation of a radioactive label DNA precursor (dCTP) upon 2 hours incubation at room temperature. Numbers indicate the amino-acids of the HsGeminin protein. LZ=coiled-coil domain.
In order to determine whether a homodimer form of Geminin is functional, the Inventors have tested the ability of this peptide to inhibit DNA synthesis in an in vitro DNA replication assay derived from Xenopus eggs^18.
Briefly, Xenopus egg extracts were prepared as previously described^35. Inhibition assays were carried out in a 20 μl reaction containing 3 ng/μl of sperm nuclei and the indicated amounts of proteins at 1:40 ratio (protein to extract). Replication was measured by incorporation of α^32P dCTP following 2 hours incubation at room temperature.

Molecule	interference with DNA synthesis at concentration much higher than wild-type protein (e.g. 320 nM)	inhibition of DNA synthesis (in words)	inhibition of DNA synthesis (in words) (listed as HsGeminin (residues 80-212))	inhibition of DNA synthesis (in words) (listed as mutant 82-145)
HsGem-LZ: residues Leu110-Ala145 of human Geminin with an extra N-terminal capping Thr residue, made by Fmoc solid-phase peptide synthesis	did not interfere with DNA synthesis	non-functional	–	–
B1	–	efficiently inhibited DNA synthesis	–	–
B2	–	inhibited DNA synthesis, although less efficiently compared to the wild-type protein	–	–
B3	–	keep the ability of Geminin to inhibit DNA synthesis; also recorded: Full inhibition	effective in inhibiting DNA synthesis	–
B4	–	not functional	–	ineffective in inhibiting DNA synthesis
B5	–	Full inhibition	–	–
